The results in this text go back to US20230312675A1.

Holding throughout (test): cell-based or functional assay
Test [1] addresses EGFR on human cell lines (A431, T98G, LN18, U87, U87high, HRCE) (human) (UniProt P00533).
The target in test [2] is truncated CD19 on EL4 cells (UniProt P15391).
Test [3] concerns the target Truncated EGFR (human EGFR containing only extracellular and transmembrane domains) (human) (UniProt P00533).

UniProt P15391, sequence (P15391 20-333 limits assumed): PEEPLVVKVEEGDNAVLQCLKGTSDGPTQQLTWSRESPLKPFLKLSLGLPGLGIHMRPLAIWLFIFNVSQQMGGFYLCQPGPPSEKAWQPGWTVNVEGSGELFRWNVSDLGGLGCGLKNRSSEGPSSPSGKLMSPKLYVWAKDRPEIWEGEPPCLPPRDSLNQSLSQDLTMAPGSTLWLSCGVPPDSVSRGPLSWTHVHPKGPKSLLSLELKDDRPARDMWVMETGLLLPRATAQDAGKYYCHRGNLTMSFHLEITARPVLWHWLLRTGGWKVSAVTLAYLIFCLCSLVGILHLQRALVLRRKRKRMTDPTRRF

Take Cetuximab-derived CAR: in test [1], the percent CAR remaining on T-cell surface after 12 hours of co-culture with U87 came out at 68%, the percent CAR remaining on T-cell surface after 12 hours of co-culture with U87high amounted to 37.4%, the percent CAR remaining on T-cell surface after 48 hours of co-culture with U87 amounted to 95.5% and the percent CAR remaining on T-cell surface after 48 hours of co-culture with U87high amounted to 42.6%. Further, in test [1], the reduction in U87 cell number relative to controls grown without CAR+ T cells is 40%; the reduction in U87high cell number relative to controls grown without CAR+ T cells amounted to 80%; the specific lysis of HRCE, 10:1 E:T ratio amounted to 81.1%; the specific lysis of HRCE, DNA-modified T cells, 10:1 E:T ratio, 24 hrs was 45.5%. Moreover, in test [1], the specific lysis of HRCE, DNA-modified T cells, 10:1 E:T ratio, 120 hrs was 51.6%; the specific lysis of HRCE, RNA-modified T cells, 10:1 E:T ratio, 24 hrs is 39.5%; the specific lysis of HRCE, RNA-modified T cells, 10:1 E:T ratio, 120 hrs came out at 19.8%. The substance also showed a specific lysis of CD19+ EL4 (non-specific target) in test [2] of 17.3%. Further, in test [3], the numeric expansion of CAR+ T cells over 28 days of co-culture with tEGFR+ K562 aAPC came to 1000 fold; the production of IFN-γ in response to tEGFR+ EL4, DNA-modified T cells, 24 hour time point worked out at 40.3%; the production of IFN-γ in response to tEGFR+ EL4, DNA-modified T cells, 120 hour time point was 48.6%; the production of IFN-γ in response to tEGFR+ EL4, RNA-modified T cells, 24 hours after RNA transfer worked out at 14.2%. In test [3], this substance showed a production of IFN-γ in response to tEGFR+ EL4, RNA-modified T cells, 120 hours after RNA transfer of 1.1%; a proportion of tEGFR+ EL4 in 1:1 co-culture with CAR+ T cells after 5 days of less than 10%; a specific lysis of tEGFR+ EL4 of 57.5%.
As for Nimotuzumab-derived CAR, in test [1], the percent CAR remaining on T-cell surface after 12 hours of co-culture with U87 turned out to be 126%, the percent CAR remaining on T-cell surface after 12 hours of co-culture with U87high was 124%, the percent CAR remaining on T-cell surface after 48 hours of co-culture with U87 stood at 94.4% and the percent CAR remaining on T-cell surface after 48 hours of co-culture with U87high is 95.7%. In test [1], the reduction in U87high cell number relative to controls grown without CAR+ T cells is 80% and the specific lysis of HRCE, 10:1 E:T ratio turned out to be 30.4%. The substance also yielded a specific lysis of CD19+ EL4 (non-specific target) in test [2] of 12.3%. In test [3], the numeric expansion of CAR+ T cells over 28 days of co-culture with tEGFR+ K562 aAPC turned out to be 1000 fold, the proportion of tEGFR+ EL4 in 1:1 co-culture with CAR+ T cells after 5 days was found to be 80% and the specific lysis of tEGFR+ EL4 was 21.2%.
